According to the DeepSol protein solubility set:

Assay: soluble on expression in E. coli; label from the status in PepcDB or PDB records

| Sequence | soluble on expression in E. coli |
| --- | --- |
| MGSDKIHHHHHHMAIACVFTRASCGVEAPRVTVEVHLSNGLPAFNLVGLPETSVKEAKERVRSALINAGFEFPQKRITVNLAPADLPKQGGRYDLPIAVGILAASNQVPAKALHQCEFVGGLALSGQIRPCSGLLPAIIAARNDQHHFFMPIENRHEAELVGYKHSYFVAHLQNLAAFLHGQAQLPLLDTLPEWIEEEIQAQSSLCMSDVIGQYQAKHGLEIAAAGGHNMLFIGPPGTGKSMLANRIIPLLPKLTYDEAIEVAAIHSVAGLHVKPQNFLNRPFRSPHHTSSSIALIGGGSHPKPGEISLAHRGILFLDEIAEFPRKVLDCLREPLETGQVEISRAAAKLTFLSRFQLIAAMNPSPCGDTERARSTPDQIQRYLSRLSGPFLDRFDLTVDVPKLPAGTLTQQHQPSESSVEIAKRVKQARDLQLSRSGVLNSELTPKQLKQDGAITQPDLAFLEQSVVSLGLSVRSFHRIQRVSRTIADLQQSPTTERSHIAQALGYRAMDRLLAKLNQQ | not soluble |
| AEEGAVAVCVRVRPLNSREESLGETAQVYWKTDNNVIYQVDGSKSFNFDRVFHGNETTKNVYEEIAAPIIDSAIQGYNGTIFAYGQTASGKTYTMMGSEDHLGVIPRAIHDIFQKIKKFPDREFLLRVSYMEIYNETITDLLCGTQKMKPLIIREDVNRNVYVADLTEEVVYTSEMALKWITKGEKSRHYGETKMNQRSSRSHTIFRMILESREKGEPSNCEGSVKVSHLNLVDLAGSERAAQTGAAGVRLKEGCNINRSLFILGQVIKKLSDGQVGGFINYRDSKLTRILQNSLGGNPKTRIICTITPVSFDETLTALQFASTAKYMKNTPYVNEVSTDEALEHHHHHH | soluble |
| MTTKKFRMEDVGLSKLKVEKNPKDVKQTEWKSVLPNEVYRVARESGTETPHTGGFNDHFEKGRYVCLCCGSELFNSDAKFWAGCGWPAFSESVGQDANIVRIVDRSHGMHRTEVRCKTCDAHLGHVFNDGPKETTGERYCINSVCMAFEKKD | soluble |
| MSLSSKRDIEANTDLNSITYIPTFPEPFERDNSHTTASFVSIQIRLLVASVTEENFLDTEHQIYYLLQRGSFSVYISYWKLLIQLFVNEFEAQQQKRDLNLPFRFDFSNLVHRLLYNLAQELITRTPDTIEKVKELALPLSGKYPIRPLFLSFLNKDNESDSAIIEALNPEVHPIFTTLKDLHRTNMSVSNITQNLFAVENKPNFLTMLSEFLKPLQGETLNDWIALILSEILAPGSQTSNQPSQPWIVQVPNVDVREVIEATEMGTKVNGIIKSLGTNNVNWNRVFNLMSTKFFLNKPVNATLSSLNYLFCILNSGPLVDQFFACDWSLYFKLRLSFLMYQWNYNSECLDLSSLPNIKKINKSIPLTKKSQLSLISVGKLNIELFLSRDEISKNPLFSSFHASFSEAYNNVPEYLAAVLISESKYFSLLVDNKSIIDELLISLVIKTYENNVIAFKELLKLVSKQKVIEVSRGIIASQNAQTINLVQALHDLGILDEVFEKLPIRDSLKLSPTAMHLGYLKFSEYIERNITLKTFVPTLDFIEAQTNIDELDPALKSVKLLNLHSLHSLIYRTANLKLSADERVALNNVIFKALISFPRLINYGYGHDDAIVANGDHAPIPQDVEKKMQTYLQKMYNKEMAIKDIVDILRKLRDSDDSNDQDIFCCIIHAVIAETTFFKEYPLEALATTSVLFGSMILFDLLRGFVLDVAFQIIYTFASESPDSKMFKFAVQALYAFRMRLNEYSPFCKRLLDEIPGLQTQPQIQQILTESAANPNVSEGHHHHHH | soluble |
| MGSDKIHHHHHHMKKYVIVTGGVLSGIGKGIFSASLARLMKEHGVDVNVLKIDPYLNVDAGTMNPNQHGEVFVTEDGYEADLDLGHYERFLGRDMTRQNNMTAGQVYLRVIEKERQGKYLGNTVQIVPHLTEEIKDRIRALEAELLVVEIGGTVGDIEGEVFLEAVRELQMEEGKENFLFAHVTYVPYLRTTNEFKTKPTQQSVQLLRRIGITPDMVIVRSEFPLDVPSMNKVALFSGVPRDFVINLPDTKNVYEVPEILRDMGLHEKIASKLNVELKKSTFNWSYPKAFKPYRIALVGKYLGTDDAYKSIIESVFLTGIEKPTVVDSQMLEDMNDEEVKKVLDEYDALIIPGGFGRRGVEGKIKAIKYARENKKPILGICLGMQLMVIEFARNVFGYKEANSTEFDPNTPYPVVDLMEEQKRILKLGGTMRLGAQKVKIFPKTKLYEVYGGVEEVYERHRHRYEANEEAFPELFKKPGEEGYKLVVSAKSDFIEAVELEDHPFFVGVQFHPEYKSKVGAPHPIFVYLRKVLEGSQ | not soluble |
| DGYWYGDYYGVMSFGVNTDLVQEVPKSWEALLDSQYANAFALAGDPRASNQAILAVMSAGIADGTEPGEASGKKGLEFFGKLNKAGGFVPVIGKAGTIAQGQTPIVAAWDYNLLSWRDELKGNPPMEVVIPEGPSLAGVYVQAISAFAPHPNAAKLWMEYLYS | not soluble |
| MSEEPAAKRMKNADEFPNLRSEVAGPVKEKLIELDAIQHQLDVMSENAAEEVLKVEQIFNQKRLPIYEKRKKLTTKIDNFWQTAFLNHHLLSTAIPEEQEDLLAALRDLEVQEFEDLRSGFKIIMTFDPNEYFTNEVITKSYHLQSESPSTEITEIEWKENKKPPFKPEDGDSAHTFLEWLTYAALPDSDEIAEVIKDDLYVNPLQYYVMPDMQEVEEDDIEDFLNEERGVDENGQRIPRRNISDSLKVDQDESADGQEGEDEEEEDMGEEEEDGVEEEAEGEEEEEDGAIEEEGGDENVEAHVAVNPENTAE | soluble |
| MSKPTLAVALIVKNEARHLDECLQTVHDWVDEIVVLDSGSHDETEQVARRYTEKFYVNAKWPGFGLQRQLAQSYVQSDYVLWLDADERVTPELKQSILQAVAANKPDTLYQFARLSWVFGRFIRHSGWYPDRVLRLYPTQLTRYNDALVHEKVHVEPSMKVETLAGDAIHYTYNDVHHYLVKSAGYAKAWADQRQAKGKKASLSQGIVHAVGCFLKMYLLKRGFLDGKQGFLIALLSAHSTFVKYADLWARDNDEHYKR | not soluble |
| MSLSDKKVLCVEDEEVIRSNLMETLELFFDKVSGAKDGFEALEQAMCDTYDVFIFDISIPHLDGLEVLKRVRQFNKKTPIVILSAHKEQEYLWRAVELKITRYLTKPYDKNSLIKALEEVALELMDYHPLFQISPLHSYDFCRKAMTCKGEMVYLSKKREPTEGHHHHHH | not soluble |
| MTATLDDARAALDRIADPASGQGLVKAGLVQGLVVRNGRAGFMLEVPASVVASYAPVREAAEKALAALPGVEQAQVVLTAQAAEGATRVRKGAKISEDPQARMVPPPEAEKPQHVRHVIAVASGKGGVGKSTVSTNLAVAFAKMGLRVGLLDADIYGPSAPKMMGVDGDPLFENEKLQPLEAHGVKLMSIGFIVDEGKAMIWRGPMASSAVRQMIHDVAWGSEAQPLDVLVVDLPPGTGDVQLTLVQKLRIDGAVLVTTPQEIALIDARRAAAMFEKTATPILGLIENMAFFADPSTGAPIPIFGEGGGVAEAARLNVPLLGRVPIEIAVRLGGDQGVPAVIGEPKGQAAEVFIGAAKVLWKSVSHLEHHHHHH | soluble |
| MRRVEKVIIVEGRSDKQKVAAVLNEPVVIVCTNGTISDARLEELADELEGYDVYLLADADEAGEKLRRQFRRMFPEAEHLYIDRAYREVAAAPIWHLAQVLLRARFDVRIESLMRGRGE | soluble |
| MGSDKIHHHHHHAGFGVAGLSEKTYKTVLNTNMGALYSPSLSAQVVDGACYLINYELDLNSPENANAATNGYLTATISVADEITKGQPVFYNVPDSASLLQNEIPVKNLFSNGDYGVYVDGYLFFFITMDMFKDQKNSYTLYWDRSKEPTMVDNVPTYDLFLRVAKVADGTGSAASSIGEVRAFNVKSVLESVNSAEANKDSKSFNLKVNYLNTINEKDSTDLKWASYTVLFQVVKNS | not soluble |
| MAVLGRKSDRAVFDDGPVPRYEAVKQFIRSRIESGEWPPHHRVPSENDIVADLGVSRMTANRALRELASEGAITRVQGVGSFVAAHKGSTALLEVRNIADEIRERGHRHTSRITLLEEEQASTEVAEALGLAAKARVFHSIIVHAEDDVPIQIEDRFVNPAICPNYLEQDFTSMTPNVYLTLVAPITRTEQIVEAVLPKPWECKLLSIGRGEPCLMIRRRTWSEAANVTVAWLTYPGTRYRLEGVSQ | not soluble |
| MKASTVLQIAYLVSQESKCCSWKVGAVIEKNGRIISTGYNGSPAGGVNCCDYAAEQGWLLNKPKHAIIQGHKPECVSFGSTDRFVLAKEHRSAHSEWSSKNEIHAELNAILFAAENGSSIEGATMYVTLSPCPDCAKAIAQSGIKKLVYCETYDKNKPGWDDILRNAGIEVFNVPKKNLNKLNWENINEFCGE | soluble |
| MGSDKIHHHHHHMSSKAEKDIKWGIAPIGWRNDDIPSIGKDNNLQQLLSDIVVAGFQGTEVGGFFPGPEKLNYELKLRNLEIAGQWFSSYIIRDGIEKASEAFEKHCQYLKAINAPVAVVSEQTYTIQRSDTANIFKDKPYFTDKEWDEVCKGLNHYGEIAAKYGLKVAYHHHMGTGIQTKEETDRLMANTDPKLVGLLYDTGHIAVSDGDYMALLNAHIDRVVHVHFKDVRRSKEEECRAKGLTFQGSFLNGMFTVPGDGDLDFKPVYDKLIANNYKGWIVVEAEQDPSKANPLEMAQIAHRYIKQHLIEN | not soluble |
| MSEFLPFSRPAMGVEELAAVKEVLESGWITTGPKNQALEQAFCQLTGNQHAIAVSSATAGMHITLMALKIGKGDEVITPSLTWVSTLNMISLLGATPVMVDVDRDTLMVTPEAIESAITPRTKAIIPVHYAGAPADIDAIRAIGERYGIAVIEDAAHAVGTYYKGRHIGAKGTAIFSFHAIKNITCAEGGLIVTDNENLARQLRMLKFHGLGVDAYDRQTWGRAPQAEVLTPGYKYNLTDINAAIALTQLVKLEHLNTRRREIAQQYQQALAALPFQPLSLPAWPHVHAWHLFIIRVDEQRCGISRDALMEALKERGIGTGLHFRAAHTQKYYRERFPTLSLPNTEWNSERICSLPLFPDMTTADADHVITALQQLAGQ | soluble |
| MAFDGCCPDCKLPGDDCPLIWGACNHAFHLHCILKWVNSQTSQAHCPMCRREWQFKE | soluble |
| MGSDKIHHHHHHDEEPKSTLTDVAYYKTQSQMESNVNYLYRTGAIGSYVDFGSAYIGPFASIQEELTGYFSNSYEGQEIVCRYTRELTRQQNTMQLASKMDKVWDDCYRGINVANGAIKHMPEVPMDQATADRLTAEAKFFRAFNYFYLVKTFGAVPFYTDPYELAENMELPRTETSTIYNQIESDLKDAMNVLPEATFAANGHRITKYVAAMTLTDVYMYQHKYAEAAETVRIVVNSNHKLTTNDDLAMNSAFNKLRSTDDLDEAIYAYEYDNQISPSNWLPTYAFDGDASSNGLFGTYAITQKVHGPNDRYLNIYESNDLRRQPNQFYHWTYTNPKTGKVWNSVGNAACCWYYYDEDALLTTGRGTKDWNVYRYAEALLDAAESIAQSTGVTAEAAGYLAQVKARANMEGKTAAEIASSLQSMGKQAFIEECWTERLRELPLEFKMWDMCVRTGMFPNISETTPGQVTYIPLVGAKNASGATIKESDLLWPLSVNEIQRNPSLTQNEGYSAK | not soluble |
| MAVEVVMPKLGMAMKEGIITSWNIKAGDNVAKGELIASINSEKIETEIEAPADGTILDIAVSEDEGVPPGTVICYIGKPNEKVEVHESTKVEEELTASEVPQNVQHPEPLGKEVTNKQRIKISPVAKKIAKTENLDIRALLGTGPGGRITKVDVLKALEERVAIPEVLEESKVLPVTGMRKAIANRMHASLQNSAQLTLTMKVDVTDLVALHKEIAEVVQKRYDNKLTITDFVSRAVVLALGEHKEMNSAYIDDAIHQFEHVHLGMAVALEKGLVVPAIRFANNLSLVELSKEIKNAAQKARAGNLNSDDMQGTTFTISNLGSFGIEYFTPVLNTPETGILGVGAIEHVPVYKGKKLKKGSMLPLSLTFDHRVLDGAPAAAFLRTIKRYLEEPVTILL | not soluble |
